{
  "source": "patent US20090098112A1",
  "about": "(Genentech, published 2009)",
  "binders": {"B1": {"name": "CDR-H2:N54A (Fab, part only; not given: VH end, constant domains, phage fusion, V domains shown, not shown: another chain or arm of the molecule; a dimerising Fc or GST; large carriers)", "VL": "DIQMTQSPSSLSASVGDRVTITCKASQNVGSDVAWYQQKPGKAPKTLIYSTSYRYSGVPSRFSGSGSGTDFTLTISSLQPEDFATYYCQQYNSYPFTFGQGTKVEIK", "VH": "EVQLVESGGGLVQPGGSLRLSCAASGYTFTDYYLYWVRQAPGKGLEWIGGISPSAGGTTFNDNFENKATLSVDKSKNTAYLQMNSLRAEDTAVYYCTRDAYGDWYFDVWGQGT"}, "B2": {"name": "humanized 7H5.v2-IgG (antibody, V domains shown)", "VH": "B1 VH with A55S, N61A, N63A, N66G", "VL": "DIQMTQSPSSLSASVGDRVTITCKASQSVGSDVAWYQQKPGKAPKTLIYSTSYRYSGVPSRFSGSGSGTDFTLTISSLQPEDFATYYCQQYSSYPFTFGQGTKVEIKR", "notes": "also called h7H5.v2"}, "B3": {"name": "CDR-H2:N62S (Fab, part only; not given: VH end, constant domains, phage fusion, V domains shown, not shown: another chain or arm of the molecule; a dimerising Fc or GST; large carriers)", "VL": "B1 VL", "VH": "B1 VH with A55N, N63S"}, "B4": {"name": "h7H5.v3 (antibody, human IgG1, V domains shown)", "VH": "B1 VH with A55S, N61A, N63S, N66G", "VL": "B2 VL", "notes": "as human IgG1; also called humanized 7H5.v3-IgG"}, "B5": {"name": "h7H5.v5 (antibody, human IgG1, V domains shown)", "VH": "B1 VH with T30S, I48V, G49S, A55S, N61A, N63A, N66G, K67R, A68F, L70I", "VL": "B2 VL with T46L", "notes": "as human IgG1; also called humanized 7H5.v5-IgG"}, "B6": {"name": "humanized 7H5.v4-IgG (antibody, V domains shown)", "VH": "B1 VH with T30S, I48V, A55S, N61A, N63A, N66G, K67R, A68F, L70I", "VL": "B2 VL with T46L", "notes": "also called h7H5.v4"}, "B7": {"name": "h7H5.v1 (antibody, human IgG1, V domains shown)", "VH": "B1 VH with A55N", "VL": "B2 VL with S28N, S92N", "notes": "CDR graft of murine 7H5, as human IgG1; also called humanized 7H5.v1-IgG"}},
  "key": {"[1]": {"biological_target": "T1, recombinant human integrin α5β1 (R&D) (human, UniProt P08648 42-995; P05556 21-728)", "T1 construct": "Bought recombinant heterodimer (R&D); It was used coated on plates and in solution in the phage ELISA, and as analyte or immobilized in BIAcore; also called alpha5beta1; a5b1", "T1 sequence (P08648 42-995 limits assumed, chain 1 of 2)": "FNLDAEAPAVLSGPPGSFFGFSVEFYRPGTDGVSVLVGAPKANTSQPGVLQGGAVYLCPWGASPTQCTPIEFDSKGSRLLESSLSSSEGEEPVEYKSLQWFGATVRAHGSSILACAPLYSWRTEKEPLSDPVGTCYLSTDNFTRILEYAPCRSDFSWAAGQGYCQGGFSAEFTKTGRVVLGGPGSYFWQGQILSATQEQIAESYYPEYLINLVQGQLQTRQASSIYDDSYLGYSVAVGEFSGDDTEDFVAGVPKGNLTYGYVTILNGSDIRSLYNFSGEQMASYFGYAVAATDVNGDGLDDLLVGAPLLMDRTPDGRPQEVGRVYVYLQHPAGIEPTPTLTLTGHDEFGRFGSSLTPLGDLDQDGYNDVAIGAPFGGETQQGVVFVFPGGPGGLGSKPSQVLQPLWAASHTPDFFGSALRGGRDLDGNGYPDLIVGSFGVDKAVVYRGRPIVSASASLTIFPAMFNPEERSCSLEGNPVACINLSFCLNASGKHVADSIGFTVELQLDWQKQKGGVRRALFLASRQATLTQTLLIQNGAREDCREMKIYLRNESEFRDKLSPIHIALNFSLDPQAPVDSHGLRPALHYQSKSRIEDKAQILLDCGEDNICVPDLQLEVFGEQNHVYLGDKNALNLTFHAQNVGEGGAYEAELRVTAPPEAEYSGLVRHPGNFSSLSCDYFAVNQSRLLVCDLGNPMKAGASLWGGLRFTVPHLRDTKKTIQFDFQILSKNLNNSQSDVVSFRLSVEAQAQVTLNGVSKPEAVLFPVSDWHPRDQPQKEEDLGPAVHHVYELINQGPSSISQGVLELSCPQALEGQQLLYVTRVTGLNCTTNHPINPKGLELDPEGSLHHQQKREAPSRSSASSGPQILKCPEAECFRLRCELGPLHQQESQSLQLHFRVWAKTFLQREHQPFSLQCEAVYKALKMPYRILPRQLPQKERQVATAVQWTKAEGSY", "T1 sequence (P05556 21-728 limits assumed, chain 2 of 2)": "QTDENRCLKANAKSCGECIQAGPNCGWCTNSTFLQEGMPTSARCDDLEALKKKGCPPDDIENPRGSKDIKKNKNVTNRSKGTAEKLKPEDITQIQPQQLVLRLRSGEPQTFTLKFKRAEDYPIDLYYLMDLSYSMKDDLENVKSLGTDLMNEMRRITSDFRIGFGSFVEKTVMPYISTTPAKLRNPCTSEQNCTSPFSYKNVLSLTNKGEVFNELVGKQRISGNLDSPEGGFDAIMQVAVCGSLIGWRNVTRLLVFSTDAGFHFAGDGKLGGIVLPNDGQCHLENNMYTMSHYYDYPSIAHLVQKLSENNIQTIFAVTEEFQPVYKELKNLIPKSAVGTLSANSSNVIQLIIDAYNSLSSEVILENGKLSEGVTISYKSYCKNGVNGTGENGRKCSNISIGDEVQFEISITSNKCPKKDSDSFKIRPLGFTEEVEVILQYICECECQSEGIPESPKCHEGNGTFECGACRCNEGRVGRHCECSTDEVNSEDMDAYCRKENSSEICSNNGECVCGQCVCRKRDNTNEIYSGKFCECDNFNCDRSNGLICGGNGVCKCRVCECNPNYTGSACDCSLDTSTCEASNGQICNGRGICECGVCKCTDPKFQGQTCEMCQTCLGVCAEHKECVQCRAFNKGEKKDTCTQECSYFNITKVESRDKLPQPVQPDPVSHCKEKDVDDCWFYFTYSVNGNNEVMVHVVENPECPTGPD", "assay": "phage competition ELISA IC50 of the Fab-phage against human integrin α5β1, relative to parental h7H5.v1; down arrow = loss, up arrow = improvement of binding affinity", "description": "Substitutions with other resides at various positions was achieved by Kunkel mutagenesis using a separate oligonucleotide for each position. […] The IC50 values for binding affinity were determined by phage competition ELISA in FIG. 6. Two variants, h7H5.v2 and h7H5.v3 as indicated were selected to include glycine substitution at position 65 of CDR-H2, cloned into hIgG1 vector, and evaluated binding affinities using BIAcore instrument.\n(§1) MAXISORP™ microtiter plates were coated with recombinant human integrin α5β1 (R&D) at 5 μg/ml in PBS overnight and then blocked with PBST buffer (0.5% BSA and 0.05% Tween 20 in PBS) for an hour at room temperature. Phage from culture supernatants were incubated with serially diluted human integrin α5β1 in PBST buffer in a tissue-culture microtiter plate for an hour, after which 80 μl of the mixture was transferred to the target-coated wells for 15 minutes to capture unbound phage. The plate was washed with PBT buffer (0.05% Tween 20 in PBS), and HRP-conjugated anti-M13 (Amersham Pharmacia Biotech) was added (1:5000 in PBST buffer) for 40 minutes. The plate was washed with PBT buffer and developed by adding tetramethylbenzidine substrate (Kirkegaard and Perry Laboratories, Gaithersburg, Md.). The absorbance at 450 nm was plotted as a function of target concentration in solution to determine phage IC₅₀."}, "[2]": {"biological_target": "T1, recombinant human integrin α5β1 (R&D)", "assay": "phage competition ELISA: Fab-phage incubated with serially diluted soluble human integrin α5β1, unbound phage captured on plate-coated integrin α5β1, anti-M13-HRP, A450", "description": "Mutation at each position was generated by Kunkel mutagenesis using a separate oligonucleotide. Phage competition ELISA was utilized for evaluating all of the variants. […] Binding affinities (IC50) against human integrin α5β1 was determined.\nas §1"}, "[3]": {"biological_target": "T1, recombinant human integrin α5β1 (R&D)", "assay": "SPR (BIACORE-3000), antibody immobilized on CM5 chip (about 450 RU), human integrin α5β1 injected 300 nM to 0.29 nM, 25 °C, 1:1 Langmuir fit", "description": "(§2) FIG. 9 depicts the results of a BIACORE® analysis of humanized 7H5.v2, v4 and v5-IgG against human integrin α5β1.\n(§3) Affinity determinations were performed by surface-plasmon resonance using a BIACORE™-3000 instrument. Immobilization was achieved by random coupling through amino groups using a protocol provided by the manufacturer. Two different formats were operated to study binding kinetics for antibody against human integrin α5β1. In FIGS. 3A, 7, and 9A, antibodies were immobilized on a CM5 sensor chip around 450 response units (RU), and 2-fold serial diluted concentrations of human integrin α5β1 (300 nM to 0.29 nM) in PBT buffer (0.05% Tween 20 in PBS) were injected with a flow rate of 30 μl/min at 25° C. In FIGS. 3B and 9B, human integrin […] was immobilized on a CM5 sensor chip around 800 RU, and 2-fold serial diluted concentrations of antibodies (200 nM to 0.2 nM) in PBT buffer (0.05% Tween 20 in PBS) were injected with a flow rate of 30 μl/min at 25° C. After each injection, the chip was regenerated using 10 mM Glycine-HCl buffer at pH 1.7. Binding response was corrected by subtracting the RU from a blank flow cell. Association rates (kₒₙ) and dissociation rates (koff) were calculated using a simple one-to-one Langmuir binding model (BIAcore Evaluation Software version 3.2). The equilibrium dissociation constant (Kd) was calculated as the ratio koff/kₒₙ."}, "[4]": {"biological_target": "T1, recombinant human integrin α5β1 (R&D)", "assay": "SPR (BIACORE-3000), human integrin α5β1 immobilized on CM5 chip (about 800 RU), antibody injected 200 nM to 0.2 nM, 25 °C, 1:1 Langmuir fit", "description": "as §2, §3"}, "[5]": {"biological_target": "T1, recombinant human integrin α5β1 (R&D)", "assay": "SPR (BIACORE-3000), antibody immobilized on CM5 chip (about 450 RU), human integrin α5β1 injected 300 nM to 0.29 nM, 25 °C, 1:1 Langmuir fit", "description": "FIG. 7 depicts the results of a BIACORE® analysis of humanized 7H5.v1, v2 and v3-IgG against human integrin α5β1. […] Humanized 7H5.v2 indicates the most binding affinity improvement in off-rate.\nas §3", "remark": "listed apart in the source"}, "[6]": {"biological_target": "T1, recombinant human integrin α5β1 (R&D)", "assay": "SPR (BIACORE-3000), antibody immobilized on CM5 chip (about 450 RU), human integrin α5β1 injected 300 nM to 0.29 nM, 25 °C, 1:1 Langmuir fit", "description": "(§4) FIG. 3 depicts the results of a BIACORE® analysis of chimeric 7H5-IgG and humanized 7H5.v1-IgG against human integrin α5β1.\nas §3", "remark": "listed apart in the source"}, "[7]": {"biological_target": "T1, recombinant human integrin α5β1 (R&D)", "assay": "SPR (BIACORE-3000), human integrin α5β1 (R&D) immobilized on CM5 chip (about 800 RU), antibody injected 200 nM to 0.2 nM, 25 °C, 1:1 Langmuir fit", "description": "as §4, §3"}},
  "note": "Positions count from the first letter of the chain named. Names and notes keep the numbering of the source.",
  "data": [
    {"binder": "B1", "values": [
      {"measurement": "Relative Fold to h7H5.v1", "setting": "[1]", "value": 2.4, "unit": "fold"},
      {"measurement": "IC50 (read off the curve)", "setting": "[2]", "value": 0.2, "unit": "nM"}
    ]},
    {"binder": "B2", "values": [
      {"measurement": "Kd", "setting": "[3]", "value": 0.77, "unit": "nM"},
      {"measurement": "koff", "setting": "[3]", "value": "6.4e-05", "unit": "s⁻¹"},
      {"measurement": "kon", "setting": "[3]", "value": 83000, "unit": "M⁻¹ s⁻¹"},
      {"measurement": "Kd", "setting": "[4]", "value": 0.11, "unit": "nM"},
      {"measurement": "koff", "setting": "[4]", "value": 0.00015, "unit": "s⁻¹"},
      {"measurement": "kon", "setting": "[4]", "value": "1.4e+06", "unit": "M⁻¹ s⁻¹"},
      {"measurement": "Kd", "setting": "[5]", "value": 0.77, "unit": "nM"},
      {"measurement": "koff", "setting": "[5]", "value": "6.2e-05", "unit": "s⁻¹"},
      {"measurement": "kon", "setting": "[5]", "value": 81000, "unit": "M⁻¹ s⁻¹"}
    ]},
    {"binder": "B3", "values": [
      {"measurement": "Relative Fold to h7H5.v1", "setting": "[1]", "value": 1.3, "unit": "fold"},
      {"measurement": "IC50 (read off the curve)", "setting": "[2]", "value": 0.1, "unit": "nM"}
    ]},
    {"binder": "B4", "values": [
      {"measurement": "Kd", "setting": "[5]", "value": 1.07, "unit": "nM"},
      {"measurement": "koff", "setting": "[5]", "value": "7.5e-05", "unit": "s⁻¹"},
      {"measurement": "kon", "setting": "[5]", "value": 70000, "unit": "M⁻¹ s⁻¹"}
    ]},
    {"binder": "B5", "values": [
      {"measurement": "Kd", "setting": "[3]", "value": 0.97, "unit": "nM"},
      {"measurement": "koff", "setting": "[3]", "value": "6.7e-05", "unit": "s⁻¹"},
      {"measurement": "kon", "setting": "[3]", "value": 69000, "unit": "M⁻¹ s⁻¹"},
      {"measurement": "Kd", "setting": "[4]", "value": 0.26, "unit": "nM"},
      {"measurement": "koff", "setting": "[4]", "value": 0.00017, "unit": "s⁻¹"},
      {"measurement": "kon", "setting": "[4]", "value": 660000, "unit": "M⁻¹ s⁻¹"}
    ]},
    {"binder": "B6", "values": [
      {"measurement": "Kd", "setting": "[3]", "value": 0.73, "unit": "nM"},
      {"measurement": "koff", "setting": "[3]", "value": "5.5e-05", "unit": "s⁻¹"},
      {"measurement": "kon", "setting": "[3]", "value": 75000, "unit": "M⁻¹ s⁻¹"},
      {"measurement": "Kd", "setting": "[4]", "value": 0.14, "unit": "nM"},
      {"measurement": "koff", "setting": "[4]", "value": 0.00013, "unit": "s⁻¹"},
      {"measurement": "kon", "setting": "[4]", "value": 930000, "unit": "M⁻¹ s⁻¹"}
    ]},
    {"binder": "B7", "values": [
      {"measurement": "Kd", "setting": "[6]", "value": 3.67, "unit": "nM"},
      {"measurement": "koff", "setting": "[6]", "value": 0.00018, "unit": "s⁻¹"},
      {"measurement": "kon", "setting": "[6]", "value": 49000, "unit": "M⁻¹ s⁻¹"},
      {"measurement": "Kd", "setting": "[5]", "value": 1.91, "unit": "nM"},
      {"measurement": "koff", "setting": "[5]", "value": "8.2e-05", "unit": "s⁻¹"},
      {"measurement": "kon", "setting": "[5]", "value": 43000, "unit": "M⁻¹ s⁻¹"},
      {"measurement": "Kd", "setting": "[7]", "value": 0.23, "unit": "nM"},
      {"measurement": "koff", "setting": "[7]", "value": 0.0002, "unit": "s⁻¹"},
      {"measurement": "kon", "setting": "[7]", "value": 870000, "unit": "M⁻¹ s⁻¹"}
    ]}
  ]
}
